Reference: the supplement of paper PMC9112550, “Optimization of the antimicrobial peptide Bac7 by deep mutational scanning” (BMC Biology, 2022)

Tested on: Escherichia coli TOP10
Test: shrunken log2 fold change of peptide-encoding DNA abundance (4.5 h post-induction vs induction); higher = less antimicrobial activity (less host growth inhibition)
Settings: time post-induction: 4.5 h; library: site-saturation at positions 5, 18, 19, 20
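Also: peptides expressed intracellularly from a pBAD plasmid library in pooled LB shake-flask culture, induced with 0.3% L-arabinose, DNA abundance read by NGS, three biological replicates, DESeq2 with apeglm shrinkage.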

| Sequence | shrunken log2 fold change |
| --- | --- |
| RRIRDRPPRLPRPRPRPYGEPRP | -0.31 |
| RRIRFRPPRLPRPRPRPWGHPRP | -0.000438 |
| RRIRVRPPRLPRPRPRPSYNPRP | -0.485 |
| RRIRHRPPRLPRPRPRPPTTPRP | -0.175 |
| RRIRKRPPRLPRPRPRPRLCPRP | 0.308 |
| RRIRCRPPRLPRPRPRPGCAPRP | 0.593 |
| RRIRSRPPRLPRPRPRPEDKPRP | -0.00968 |
| RRIRNRPPRLPRPRPRPKQNPRP | 0.0598 |
| RRIRIRPPRLPRPRPRPPSEPRP | -0.118 |
| RRIRERPPRLPRPRPRPDVLPRP | -0.138 |
| RRIRWRPPRLPRPRPRPNTHPRP | -0.231 |
| RRIRVRPPRLPRPRPRPHCTPRP | -1.21 |
| RRIRYRPPRLPRPRPRPTLFPRP | -0.145 |
| RRIRMRPPRLPRPRPRPWYSPRP | -0.427 |
| RRIRERPPRLPRPRPRPAKNPRP | -0.0998 |
| RRIRWRPPRLPRPRPRPFHVPRP | -0.0106 |
| RRIRVRPPRLPRPRPRPMGNPRP | -0.0915 |
| RRIRFRPPRLPRPRPRPVDEPRP | 0.0494 |
| RRIRLRPPRLPRPRPRPNDYPRP | -0.582 |
| RRIRIRPPRLPRPRPRPACYPRP | -0.472 |
| RRIRERPPRLPRPRPRPMQNPRP | 0.168 |
| RRIRYRPPRLPRPRPRPMQAPRP | -0.0122 |
| RRIRDRPPRLPRPRPRPQHIPRP | -0.762 |
| RRIRKRPPRLPRPRPRPMQPPRP | 0.288 |
| RRIRHRPPRLPRPRPRPEMLPRP | -0.32 |

| Sequence | shrunken log2 fold change |
| --- | --- |
| RRIRNRPPRLPRPRPRPIMTPRP | -0.269 |
| RRIRCRPPRLPRPRPRPCWCPRP | -0.203 |
| RRIRLRPPRLPRPRPRPCDYPRP | -0.191 |
| RRIRQRPPRLPRPRPRPWRVPRP | -0.049 |
| RRIRPRPPRLPRPRPRPRSHPRP | 0.16 |
| RRIRYRPPRLPRPRPRPWRWPRP | -0.036 |
| RRIRKRPPRLPRPRPRPVHFPRP | -0.0637 |
| RRIRHRPPRLPRPRPRPAFSPRP | -0.0483 |
| RRIRFRPPRLPRPRPRPFYRPRP | -0.202 |
| RRIRYRPPRLPRPRPRPHYPPRP | -1.84 |
| RRIRARPPRLPRPRPRPQMPPRP | 0.465 |
| RRIRRRPPRLPRPRPRPMHAPRP | 1.49 |
| RRIRQRPPRLPRPRPRPVGIPRP | -0.0511 |
| RRIRKRPPRLPRPRPRPPKQPRP | 0.202 |
| RRIRDRPPRLPRPRPRPYQHPRP | -0.221 |
| RRIRCRPPRLPRPRPRPQKSPRP | -0.554 |
| RRIRCRPPRLPRPRPRPKCIPRP | -0.102 |
| RRIRMRPPRLPRPRPRPDRVPRP | 0.0719 |
| RRIRYRPPRLPRPRPRPPWNPRP | -0.161 |
| RRIRIRPPRLPRPRPRPSCIPRP | -0.0523 |
| RRIRMRPPRLPRPRPRPWHAPRP | 0.098 |
| RRIRWRPPRLPRPRPRPVHTPRP | 0.627 |
| RRIRDRPPRLPRPRPRPNFFPRP | 0.144 |
| RRIRKRPPRLPRPRPRPYQQPRP | -0.00547 |
| RRIRARPPRLPRPRPRPTAKPRP | 1.36 |

| Sequence | shrunken log2 fold change |
| --- | --- |
| RRIRFRPPRLPRPRPRPCRDPRP | -0.274 |
| RRIRKRPPRLPRPRPRPRFKPRP | 0.52 |
| RRIRWRPPRLPRPRPRPRFAPRP | 0.695 |
| RRIRTRPPRLPRPRPRPTEAPRP | 0.0502 |
| RRIRKRPPRLPRPRPRPHVQPRP | -0.0829 |
| RRIRMRPPRLPRPRPRPPEEPRP | 2.13 |
| RRIRLRPPRLPRPRPRPTDYPRP | -0.286 |
| RRIRWRPPRLPRPRPRPINHPRP | -0.914 |
| RRIRERPPRLPRPRPRPPYKPRP | -0.107 |
| RRIRDRPPRLPRPRPRPIWGPRP | -0.0681 |
| RRIRPRPPRLPRPRPRPRMAPRP | 0.278 |
| RRIRARPPRLPRPRPRPVAWPRP | 0.474 |
| RRIRVRPPRLPRPRPRPDWYPRP | -0.0357 |
| RRIRTRPPRLPRPRPRPHNPPRP | -0.385 |
| RRIRTRPPRLPRPRPRPFNHPRP | 0.00676 |
| RRIRIRPPRLPRPRPRPFFDPRP | -0.417 |
| RRIRGRPPRLPRPRPRPIEKPRP | 0.942 |
| RRIRSRPPRLPRPRPRPPREPRP | 0.622 |
| RRIRIRPPRLPRPRPRPFSHPRP | -0.177 |
| RRIRMRPPRLPRPRPRPALVPRP | 0.327 |
| RRIRPRPPRLPRPRPRPRNTPRP | 1.19 |
| RRIRNRPPRLPRPRPRPCESPRP | -0.00141 |
| RRIRPRPPRLPRPRPRPFGAPRP | -0.00494 |
| RRIRVRPPRLPRPRPRPSSSPRP | -0.113 |
| RRIRDRPPRLPRPRPRPHPHPRP | -0.0722 |

| Sequence | shrunken log2 fold change |
| --- | --- |
| RRIRPRPPRLPRPRPRPEIAPRP | 0.189 |
| RRIRNRPPRLPRPRPRPQYPPRP | -0.571 |
| RRIRHRPPRLPRPRPRPLPSPRP | 0.393 |
| RRIRMRPPRLPRPRPRPVPYPRP | 0.193 |
| RRIRGRPPRLPRPRPRPEDFPRP | 0.149 |
| RRIRLRPPRLPRPRPRPINLPRP | -0.573 |
| RRIRARPPRLPRPRPRPSTMPRP | -0.237 |
| RRIRWRPPRLPRPRPRPQSMPRP | 0.0679 |
| RRIRARPPRLPRPRPRPPDTPRP | 0.764 |
| RRIRMRPPRLPRPRPRPSGYPRP | -0.0299 |
| RRIRQRPPRLPRPRPRPDWNPRP | -0.189 |
| RRIRMRPPRLPRPRPRPTHGPRP | 0.188 |
| RRIRSRPPRLPRPRPRPTIAPRP | 0.105 |
| RRIRYRPPRLPRPRPRPYRIPRP | -0.731 |
| RRIRNRPPRLPRPRPRPKCGPRP | -0.0686 |
| RRIRYRPPRLPRPRPRPWVSPRP | -0.013 |
| RRIRTRPPRLPRPRPRPMHHPRP | -0.00407 |
| RRIRERPPRLPRPRPRPPFPPRP | 0.018 |
| RRIRWRPPRLPRPRPRPSCIPRP | -0.261 |
| RRIRFRPPRLPRPRPRPYGVPRP | -0.00783 |
| RRIRKRPPRLPRPRPRPSWRPRP | 0.211 |
| RRIRTRPPRLPRPRPRPANRPRP | -0.0396 |
| RRIRGRPPRLPRPRPRPPRAPRP | 1.25 |
| RRIRKRPPRLPRPRPRPKRIPRP | 0.0395 |
| RRIRFRPPRLPRPRPRPPSFPRP | -0.259 |

| Sequence | shrunken log2 fold change |
| --- | --- |
| RRIRSRPPRLPRPRPRPDDSPRP | -0.237 |
| RRIRLRPPRLPRPRPRPQDRPRP | 0.128 |
| RRIRQRPPRLPRPRPRPPFIPRP | -0.0092 |
| RRIRPRPPRLPRPRPRPYLIPRP | -0.445 |
| RRIRDRPPRLPRPRPRPLYHPRP | -0.54 |
| RRIRNRPPRLPRPRPRPDNHPRP | -0.0531 |
| RRIRVRPPRLPRPRPRPDISPRP | -0.0643 |
| RRIRARPPRLPRPRPRPDHFPRP | -0.148 |
| RRIRTRPPRLPRPRPRPMNTPRP | -0.609 |
| RRIRQRPPRLPRPRPRPHWMPRP | -0.0751 |
| RRIRDRPPRLPRPRPRPIEIPRP | -0.298 |
| RRIRMRPPRLPRPRPRPKKHPRP | 0.405 |
| RRIRQRPPRLPRPRPRPHKGPRP | -0.214 |
| RRIRYRPPRLPRPRPRPRCWPRP | 0.136 |
| RRIRFRPPRLPRPRPRPYQMPRP | -0.0843 |
| RRIRVRPPRLPRPRPRPADAPRP | -0.183 |
| RRIRGRPPRLPRPRPRPEVQPRP | 1.71 |
| RRIRIRPPRLPRPRPRPCAQPRP | -0.485 |
| RRIRQRPPRLPRPRPRPIRWPRP | -0.0554 |
| RRIRMRPPRLPRPRPRPNDYPRP | -0.103 |
| RRIRTRPPRLPRPRPRPDIVPRP | -0.0539 |
| RRIRTRPPRLPRPRPRPFPCPRP | -0.197 |
| RRIRDRPPRLPRPRPRPGVPPRP | 0.000778 |
| RRIRDRPPRLPRPRPRPKYEPRP | -0.00728 |
| RRIRYRPPRLPRPRPRPICLPRP | -0.219 |
